# Literature values in publication PMC9691366, “Modulating the pharmacokinetic profile of Actinium-225-labeled macropa-derived radioconjugates by dual targeting of PSMA and albumin” (Theranostics, 2022).
# System: tumor
# Settings: in vivo, 24 h; cited from earlier work
substance,measurement,value
[^177Lu]Lu-PSMA-617,tumor uptake,11.20 ± 4.17 %ID/g
